Biological target: CeHsc70-Δ512 (lidless CeHsc70) (C. elegans), P09446
Sequence (P09446 1-512, stated change not applied): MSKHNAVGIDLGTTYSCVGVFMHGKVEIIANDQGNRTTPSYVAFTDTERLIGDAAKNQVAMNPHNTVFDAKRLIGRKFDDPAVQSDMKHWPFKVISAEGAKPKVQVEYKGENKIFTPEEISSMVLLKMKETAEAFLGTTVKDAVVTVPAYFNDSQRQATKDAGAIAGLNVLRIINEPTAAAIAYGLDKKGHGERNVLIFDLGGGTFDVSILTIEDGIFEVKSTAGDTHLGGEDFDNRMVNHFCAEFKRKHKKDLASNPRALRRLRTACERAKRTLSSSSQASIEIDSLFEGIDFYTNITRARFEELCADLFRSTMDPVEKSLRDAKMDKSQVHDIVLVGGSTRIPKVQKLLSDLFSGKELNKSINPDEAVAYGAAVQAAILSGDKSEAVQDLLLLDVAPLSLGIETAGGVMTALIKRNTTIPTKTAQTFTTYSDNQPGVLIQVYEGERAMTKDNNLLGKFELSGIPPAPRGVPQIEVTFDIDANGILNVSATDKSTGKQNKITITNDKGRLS

B1: BAG-1 (C. elegans, unlabelled), O44739 1-210 (natural protein)
chain: MKVNVSCSSVQTTIDILEENQGEDESILTLGQLRDRIATDNDVDVETMKLLHRGKFLQGADDVSLSTLNFKENDKIIVMGGKNALVDDAGFKMLMQYEKHNLSNLQKAYDLNLRDVADLERGFLEKPKQVEMGKKLEKKVKYFNEEAERHLETLDGMNIITETTPENQAKRNREKRKTLVNGIQTLLNQNDALLRRLQEYQSVLNGDIPE
For B1, the apparent KD of BAG-1 from titration of the steady-state ATPase activity, standard buffer, 25°C was 6.5 µM.

From paper PMC3315512
